According to patent US20050176123A1, “Protease inhibitor” (Morinaga Milk Industry Co., Ltd., priority 2002, published 2005):

Legend:
Type in all cases: biochemical
papain [1] = target: T1, papain (Carica papaya, UniProt P00784); test: reverse zymography with papain on gelatin-containing SDS-polyacrylamide gel; conditions: 12.5% SDS-polyacrylamide gel with 0.1% gelatin, papain digestion pH 5.5, 37° C., 10 hours
T1 construct: purchased Wako Pure Chemical Industries, Ltd
T1 sequence (P00784 134-345): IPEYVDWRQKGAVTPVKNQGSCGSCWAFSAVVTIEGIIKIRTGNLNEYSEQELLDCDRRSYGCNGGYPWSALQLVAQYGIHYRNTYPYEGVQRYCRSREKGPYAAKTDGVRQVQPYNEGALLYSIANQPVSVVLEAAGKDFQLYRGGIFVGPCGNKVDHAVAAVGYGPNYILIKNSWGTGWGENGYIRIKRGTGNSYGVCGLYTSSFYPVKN
Description: The inventor used a technique “reverse zymography” as a method of detecting protease inhibitory substance and detected a protease inhibitory substance located on the gel of SDS-polyacrylamide gel electrophoresis. The reverse zymography is based on a technique opposite of the normal zymography, and the basic principle of the reverse zymography is as follows. That is, a sample containing protease inhibitory substance is applied onto SDS-polyacrylamide gel containing gelatin, and electrophoresis is performed, followed by soaking the gel in a protease solution to degrade protein in the gel. Protease activity is inhibited on a portion where an inhibitory substance is present and gelatin of the portion avoids being degraded by protease and is stained with staining solution, which enables detection of inhibitory substance.
Using total milk protein and bovine lactoferrin (manufactured by Morinaga Milk Industry Co., Ltd.) as samples, electrophoresis (hereinafter, SDS-polyacrylamide gel electrophoresis is sometimes abbreviated to SDS-PAGE) was conducted with 12.5% SDS-polyacrylamide gel containing 0.1% of gelatin. After electrophoresis, the gel was washed by immersing it in a 2.5% Triton X-100 solution for 45 minutes, and further washed by repeating three times the operation of immersing the gel in distilled water for 45 minutes. […]

cathepsin L = target: T2, cathepsin L (Homo sapiens, UniProt P07711); test: cysteine protease inhibitory activity (Z-Phe-Arg-MCA fluorescence, method of Barrett et al.); conditions: pH 5.5, 37° C., 10 minutes
T2 construct: purchased Wako Pure Chemical Industries, Ltd
T2 sequence (P07711 114-333, species assumed): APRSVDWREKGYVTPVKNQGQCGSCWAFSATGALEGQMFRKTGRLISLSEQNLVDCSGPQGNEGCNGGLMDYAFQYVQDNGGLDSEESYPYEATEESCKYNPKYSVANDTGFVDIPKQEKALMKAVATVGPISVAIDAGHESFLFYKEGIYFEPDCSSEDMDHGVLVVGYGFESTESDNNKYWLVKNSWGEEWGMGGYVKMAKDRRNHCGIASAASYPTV
Experimental: (§1) Inhibitory activities against cysteine proteases including papain, cathepsin B, cathepsin L and cathepsin S (these proteases are available from Wako Pure Chemical Industries, Ltd.) were determined using commercially available bovine lactoferrin (manufactured by Morinaga Milk Industry Co., Ltd.) as a test sample. The inhibitory activity was measured with reference to the method by Barrett et al. (“Methods in Enzymology,” Vol. 80, p 535-561, 1981) as described below. Namely, Z-Phe-Arg-MCA (final concentration of […]: manufactured by Peptide Institute, Inc.) was added as a substrate to 0.1 M acetic acid buffer solution (pH 5.5) in which sample was dissolved at each concentration. Then, cysteine protease (a protease selected from papain, cathepsin B, cathepsin L and cathepsin S in the present test: manufactured by Wako Pure Chemical Industries, Ltd.) solution (final concentration: 15 units/ml) was added, the whole solution was mixed and the reaction was carried out at 37° C. for 10 minutes. Subsequently, fluorescence intensity (excitation wavelength: 370 nm, emission wavelength: 460 nm) of AMC (7-Amino-4-Methyl-Coumarin) released from the digested substrate was measured with a fluorescence spectrometer (manufactured by Hitachi, Ltd.).

papain [2] = target: T1, papain; test: as above; conditions: pH 5.5, 37° C., 10 minutes
Experimental: as §1

cathepsin B = target: T3, cathepsin B (Homo sapiens, UniProt P07858); test: as above; conditions: pH 5.5, 37° C., 10 minutes
T3 construct: purchased Wako Pure Chemical Industries, Ltd
Experimental: as §1

cathepsin S = target: T4, cathepsin S (Homo sapiens, UniProt P25774); test: as above; conditions: pH 5.5, 37° C., 10 minutes
T4 construct: purchased Wako Pure Chemical Industries, Ltd
T4 sequence (P25774 115-331, species assumed): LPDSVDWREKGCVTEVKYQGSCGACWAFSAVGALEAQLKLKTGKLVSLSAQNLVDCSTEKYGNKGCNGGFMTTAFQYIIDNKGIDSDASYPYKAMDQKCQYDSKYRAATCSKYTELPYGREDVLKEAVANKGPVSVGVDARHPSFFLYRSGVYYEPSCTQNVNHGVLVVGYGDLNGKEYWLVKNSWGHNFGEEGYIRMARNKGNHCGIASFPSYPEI
Experimental: as §1

B1: bovine lactoferrin: commercially available bovine lactoferrin (Morinaga Milk Industry), 78 kDa, SEQ ID No. 2 (protein, listed as Bos taurus)
chain: MKLFVPALLSLGALGLCLAAPRKNVRWCTISQPEWFKCRRWQWRMKKLGAPSITCVRRAFALECIRAIAEKKADAVTLDGGMVFEAGRDPYKLRPVAAEIYGTKESPQTHYYAVAVVKKGSNFQLDQLQGRKSCHTGLGRSAGWIIPMGILRPYLSWTESLEPLQGAVAKFFSASCVPCIDRQAYPNLCQLCKGEGENQCACSSREPYFGYSGAFKCLQDGAGDVAFVKETTVFENLPEKADRDQYELLCLNNSRAPVDAFKECHLAQVPSHAVVARSVDGKEDLIWKLLSKAQEKFGKNKSRSFQLFGSPPGQRDLLFKDSALGFLRIPSKVDSALYLGSRYLTTLKNLRETAEEVKARYTRVVWCAVGPEEQKKCQQWSQQSGQNVTCATASTTDDCIVLVLKGEADALNLDGGYIYTAGKCGLVPVLAENRKSSKHSSLDCVLRPTEGYLAVAVVKKANEGLTWNSLKDKKSCHTAVDRTAGWNIPMGLIVNQTGSCAFDEFFSQSCAPGADPKSRLCALCAGDDQGLDKCVPNSKEKYYGYTGAFRCLAEDVGDVAFVKNDTVWENTNGESTADWAKNLNREDFRLLCLDGTRKPVTEAQSCHLAVAPNHAVVSRSDRAAHVKQVLLHQQALFGKNGKNCPDKFCLFKSETKNLLFNDNTECLAKLGGRPTYEEYLGTEYVTAIANLKKCSTSPLLEACAFLTR
modifications: sig_peptide (1)...(19) Lactoferrin
Q: How did the “band in reverse zymography using papain” value (papain [1]) turn out when B1 was run?
A: positive band

B2: transferrin: commercially available bovine transferrin (Nihon Pharmaceutical Co., Ltd.), SEQ ID No. 4 (protein, listed as Bos taurus)
chain: MRPAVRALLACAVLGLCLADPERTVRWCTISTHEANKCASFRENVLRILESGPFVSCVKKTSHMDCIKAISNNEADAVTLDGGLVYEAGLKPNNLKPVVAEFHGTKDNPQTHYYAVAVVKKDTDFKLNELRGKKSCHTGLGRSAGWNIPMAKLYKELPDPQESIQRAAANFFSASCVPCADQSSFPKLCQLCAGKGTDKCACSNHEPYFGYSGAFKCLMEGAGDVAFVKHSTVFDNLPNPEDRKNYELLCGDNTRKSVDDYQECYLAMVPSHAVVARTVGGKEDVIWELLNHAQEHFGKDKPDNFQLFQSPHGKDLLFKDSADGFLKIPSKMDFELYLGYEYVTALQNLRESKPPDSSKDECMVKWCAIGHQERTKCDRWSGFSGGAIECETAENTEECIAKIMKGEADAMSLDGGYLYIAGKCGLVPVLAENYKTEGESCKNTPEKGYLAVAVVKTSDANINWNNLKDKKSCHTAVDRTAGWNIPMGLLYSKINNCKFDEFFSAGCAPGSPRNSSLCALCIGSEKGTGKECVPNSNERYYGYTGAFRCLVEKGDVAFVKDQTVIQNTDGNNNEAWAKNLKKENFEVLCKDGTRKPVTDAENCHLARGPNHAVVSRKDKATCVEKILNKQQDDFGKSVTDCTSNFCLFQSNSKDLLFRDDTKCLASIAKKTYDSYLGDDYVRAMTNLRQCSTSKLLEACTFHKP
modifications: sig_peptide (1)...(19) Transferrin
Q: Which “inhibition rate at each concentration (%)” value (“inhibition rate … (%)” for short) (cathepsin L; inhibitor 10^−4M) does the source give for B2 here?
A: more than 30%

Q: And the “inhibition of cysteine protease activity” value (papain [2]; inhibitor 10^−3 M)?
A: completely inhibited

Q: What about the “inhibition rate … (%)” value (cathepsin B; inhibitor 10^−4M) of the same molecule?
A: more than 30%

B3: human lactoferrin: commercially available human lactoferrin (Morinaga Milk Industry), SEQ ID No. 1 (protein, listed as Homo Sapiens)
chain: MKLVFLVLLFLGALGLCLAGRRRRSVQWCAVSQPEATKCFQWQRNMRKVRGPPVSCIKRDSPIQCIQAIAENRADAVTLDGGFIYEAGLAPYKLRPVAAEVYGTERQPRTHYYAVAVVKKGGSFQLNELQGLKSCHTGLRRTAGWNVPIGTLRPFLNWTGPPEPIEAAVARFFSASCVPGADKGQFPNLCRLCAGTGENKCAFSSQEPYFSYSGAFKCLRDGAGDVAFIRESTVFEDLSDEAERDEYELLCPDNTRKPVDKFKDCHLARVPSHAVVARSVNGKEDAIWNLLRQAQEKFGKDKSPKFQLFGSPSGQKDLLFKDSAIGFSRVPPRIDSGLYLGSGYFTAIQNLRKSEEEVAARRARVVWCAVGEQELRKCNQWSGLSEGSVTCSSASTTEDCIALVLKGEADAMSLDGGYVYTAGKCGLVPVLAENYKSQQSSDPDPNCVDRPVEGYLAVAVVRRSDTSLTWNSVKGKKSCHTAVDRTAGWNIPMGLLFNQTGSCKFDEYFSQSCAPGSDPRSNLCALCIGDEQGENKCVPNSNERYYGYTGAFRCLAENAGDVAFVKDVTVLQNTDGNNNEAWAKDLKLADFALLCLDGKRKPVTEARSCHLAMAPNHAVVSRMDKVERLKQVLLHQQAKFGRNGSDCPDKFCLFQSETKNLLFNDNTECLARLHGKTTYEKYLGPQYVAGITNLKKCSTSPLLEACEFLRK
modifications: sig_peptide (1)...(19) Lactoferrin
Q: With B3 as the molecule, how does the “inhibition rate … (%)” value (cathepsin L; inhibitor 10^−6M) read?
A: completely inhibited

Q: What about the “inhibition rate … (%)” value (papain [2]; inhibitor 10^−6M) of the same molecule?
A: completely inhibited

Q: And the “inhibition rate … (%)” value (cathepsin B; inhibitor 10^−4M)?
A: almost completely inhibited

Q: What about the “inhibition rate … (%)” value (cathepsin B; inhibitor 10^−5M) of the same molecule?
A: more than 80%

Q: And the “inhibition rate … (%)” value (cathepsin S; inhibitor 10^−4M)?
A: almost completely inhibited

Q: What about the “inhibition rate … (%)” value (cathepsin S; inhibitor 10^−5M) of the same molecule?
A: more than 80%
